This data set can be described thus: soluble on expression in E. coli; label from the status in PepcDB or PDB records.
Regarding “MTPLRVFRKTTPLVNTIRLSLLPLAGLSFSAFAAQVNIAPGSLDKALNQYAAHSGFTLSVDASLTRGKQSNGLHGDYDVESGLQQLLDGSGLQVKPLGNNSWTLEPAPAPKEDALTVVGDWLGDARENDVFEHAGARDVIRREDFAKTGATTMREVLNRIPGVSAPENNGTGSHDLAMNFGIRGLNPRLASRSTVLMDGIPVPFAPYGQPQLSLAPVSLGNMDAIDVVRGGGAVRYGPQSVGGVVNFVTRAIPQDFGIEAGVEGQLSPTSSQNNPKETHNLMVGGTADNGFGTALLYSGTRGSDWREHSATRIDDLMLKSKYAPDEVHTFNSLLQYYDGEADMPGGLSRADYDADRWQSTRPYDRFWGRRKLASLGYQFQPDSQHKFNIQGFYTQTLRSGYLEQGKRITLSPRNYWVRGIEPRYSQIFMIGPSAHEVGVGYRYLNESTHEMRYYTATSSGQLPSGSSPYDRDTRSGTEAHAWYLDDKIDIGNWTITPGMRFEHIESYQNNAITGTHEEVSYNAPLPALNVLYHLTDSWNLYANTEGSFGTVQYSQIGKAVQSGNVEPEKARTWELGTRYDDGALTAEMGLFLINFNNQYDSNQTNDTVTARGKTRHTGLETQARYDLGTLTPTLDNVSIYASYAYVNAEIREKGDTYGNLVPFSPKHKGTLGVDYKPGNWTFNLNSDFQSSQFADNANTVKESADGSTGRIPGFMLWGARVAYDFGPQMADLNLAFGVKNIFDQDYFIRSYDDNNKGIYAGQPRTLYMQGSLKF”, the “soluble on expression in E. coli” value is “soluble”.

Regarding “MSLTPTELNLKAKALLETHFDDIVLSGEISKITLHGSGHWYFDLKDERSSIACAMFKGANLKVGFKPAVGDFLELCGSVSLYPESGRYQFIATSMKKAGFGDLEAQFLALKERLQKEGLFDPRFKKSLPKFPKKVGIITSKTSAALQDMLKLIHQKEYFLAKIYIFDALTQGNNAPFSLIQALKKADDMDLDVLIIARGGGSREDLFCFNDENLAREIFKAKTPIISAIGHEIDYVISDFVADFRAPTPSAAIDTLFYSKLDIEQSLDLMEEKLMQLWNYKIQNYENLLLNLSKFFKFNSLPKIIDEKIKQSHNIEKQLNHLLANQMRYNELKLDKLQNAYLQHENFFNKSKKFICIRKNGKIANLEDLKSDDIVILSSQTSQKEAKILEGHHHHHH”, the “soluble on expression in E. coli” value is given as “not soluble”. The result for “MSNAPLMPKATAVWLLDNTALTFDQVADFTKMHVLEVKAIADGDAAQGIKGMDPISTGQLTRDEIEKGEGDPDYRLKLAESKVVLPQAAKKKGPRYTPVSRRHERPSAILWLVRNHPELKDAQIMRLVGTTKTTIASVRDRTHWNAATLTPMDPVTLGLCSQLDLDFEVQRAAKEKPIDQQYGGATLLPASETTRKEAEFEAATSGKSQEDLDVDAVFAKLKTIGGKKHDDEDEDGGFLEHHHHHH” reads “soluble”; that for “MKQQGTTLPANNHTLKQYAFFAGMLSSLKKQKWRKGMSESLHLTRNGSILEITLDRPKANAIDAKTSFEMGEVFLNFRDDPQLRVAIITGAGEKFFSAGWDLKAAAEGEAPDADFGPGGFAGLTEIFNLDKPVIAAVNGYAFGGGFELALAADFIVCADNASFALPEAKLGIVPDSGGVLRLPKILPPAIVNEMVMTGRRMGAEEALRWGIVNRVVSQAELMDNARELAQQLVNSAPLAIAALKEIYRTTSEMPVEEAYRYIRSGVLKHYPSVLHSEDAIEGPLAFAEKRDPVWKGR”, “not soluble”.

Turning to “MAHHHHHHMTLKEAIDRDGVPATSSSKQRRLMDIHVTAYPGLVNQHMLPKHNTAVNDFSSIDPLQYRKAHTVRNNNAASYSEKEENVLDMLTTNQCTNRMTRLGMQLREERAKNPKGMPSISSLAPRGYRSRFLSPSFDERSTYRWDYCQWEPDGFHDTVRRELLAAYRDDWTEDEKADVDISMKIPYLTMAVSSDRLKDKATIYRKDFMEDATQADYRSLSYKTNLEDLGTSYAYSAYSIDDPRRKVLFDASVAALKTPHSVLEKTYSPRNSFLEKSLSTKQQSSAREELDRLRTMRREALHLSAAKRSAAESTDDGTTTKTVVIPGIKGSGYRRVPKGNDSYVCLSRDHFCYQQVDNF”, the “soluble on expression in E. coli” value is given as “not soluble”. Turning to “MNKSNNEPFNQVLDKHLSRRNFVKSGLGLGAMTAFAGMGLTGCGSDSSSSPIPVDPVPPLPPTKSSAKLNFTSVKGARLNAVVVPEGYSAQVLAPWGTPLNAKAAPWKADGSNTADDQANSVGMHHDGMHFFPLNQAGDDGLLCINHEYIDEIALHPNGPTVDATTGLRTIVDEVRKEINAHGVSVVRIKLTNNQWEVVYNDKHNRRFTGATVMDIAGPLAYSPLLETRYSPDGSQARGTLNNCGNGYTPWGTYLTCEENWPEYFVNRSTLTRDQIRIGISKTSSRYGWDDLAGQDEERLDEFSRFDVTPKGVSARDDYRNEANGHGYIVEIDPYNPTSRAIKRTALGRFRHEGCTFGKLSEGQPVVFYSGHDARFEYLYKFVSAAPWNPQDANSSNRLEIGDKYMNEGTLYAAKFNENGVGAWLPLTLDSQTTDGKTLGNSFASLADIILNTAGAADLLGATPMDRPEWCAVDPFTGSVYLTLTNNSKRTEANPANPRLKNNFGHIIRWDEADKETEFTWDIFVFGSPSDGNAETNLSGLTDLNQFASPDGLAFDKRGILWVQTDNGAEEVAEETNDQMLAIVPSTLLDSANKQTSVTAKNQMELKRFFVGPNDCEVTGFAISPDYKTVFANIQHPGNWPYSNNAAEVTPTGVVLRPRAATVVIRKLDGKEVAVLEHHHHHH”, the “soluble on expression in E. coli” value is recorded as “soluble”.

Consider “MSLDLHLTNKLALITGSTKGIGKAIAIEMAREGTDVIINGRNEAEVTKVVKEIQTMFPDTHPQAGTADISIESQRATLLEKFPKVDILVNNMGIFEPMEYWDIDDATWEKFFTVNVLSGNALAKAYLPKMLAQDFGRIIFIASEEAVMPSGEMPQYSMTKTMNLSLAKSLSNLTVGTHVTVNTVMPGSTLTEGVEKMLEDMYADSDIPKEDWEKDFMKNHRSRSQIQRLIRPEEIGRFVTFVASPDSSSFSGEALRIDGGLVPTIEGHHHHHH”, for which the “soluble on expression in E. coli” value was “soluble”. The result for “MSLESSQSLELLKNKIEQYALNELSNYTEGKIQVTADNIDPRLNLKVCNDNKLEVFNPYQTPMLNTSTMGIKCLEENNHWTLYIPVKITIFKSVLVAKRALLKGTKISNSDIYQTELDVQKLKQGYFTDSKELIGLVCKHDITPNSPLNPFNIELAKLVHKGEQVSIIAAHDNLTVSMDGVAMDEGALGDSVKVKNLSSKRIIEAQVTGKKTVKVTFEGHHHHHH” reads “soluble”; that for “MGKRKAFIDKKASQSFRLVPDNRERSERFKPTQEHLEEQQKYGVYYDDDYDYLQHMRAVNEPMKLENVHEEVEKTTIKTSGSSAFPPAPPLFGLVGALKKPEFFDEDVANALEEVTDDRNTGELEDNFITLAGGLLDERTTVYRSTRRGEDSEEEEDDDEDDEMYDDYNDDELFGEEAVGEIRVERADQRVIDNAFEELMDREYNTDQIGELDGDDYDVGGALEPNAGRLHKLINDKGPSNAEYDEELAKHYVRERMRLIEEGVIKDKEEYEIVEVDEGTNKKMKWDCESFATQYTNIYNHPTLIKEPRGLSRKALKRFDKAVEEMDIAEEDEDDDEDMEDDDDKESVFSTVSTFRPKNETPEQRSLRKKAVKEARKLRRVEKKANKTMFAEEKRKLAKGRIGQIKARPI”, “not soluble”.

With “MGSDKIHHHHHHMRPLIFAYANAAASIAADSWNLVMGEDNPFCRHEYLLSLEQSLSACDATGWQACHLCVFDASGMGLTQEQNTDGIVSTRDAVHFIDLPLLAVMPLYQKSHSYGEYVFDWAWAQAYEHHGLAYYPKLLNAIPFTPVLGRRIGLSPRLSADEAQQLSALVFTCLNRQLMDAHASISSWHCLFVSPSQQSLFEPPLSVKQQTLQHLPHNPSLRRLSTQFHWYNRGYTSFEAFLAALNSRKRKNIVKERAQLQTHGLRFEFVAGNVITSQQWQRFIECYQLTYLKRSGHRGYLTPVFFQMIAERLAEQIVLLVVSDATGEMIAGALYFTGRNELGQRCLFGRYWGSTLELEGLHFEACYYQGIEYCIAQDIEVFDAGAQGEHKVLRGFEPVAIYSYHNIAHPEFKLAIAHFTEEEAVQMEVYMQQMREVLPYKKAP”, the “soluble on expression in E. coli” value is recorded as “not soluble”. As to “MQHAKIFFVIASVKFLMILSIHNYTQMSKTCKLRTVARKTVMEFEGVEDFIVPFVNYTKRFMVAPDKKLISCTLRKSMSQLAENIMCLLYDEQQYFANSQSLNDTWKDERKCEHDRSYLNPSETLLNDTDTVRFAFIRDPFQRFISFYLDKCVREQKCYNCGNNMTCVLKNFYWGLKKVQRRWDGREQPEYVEIHAAPLSWNCDFYKDLSKWQLIPIGSDKTERSSAITQTEKILRKQRVNETLVDMVVDGMKDGDTDHSTYKSAHRLEAERQIREDPYIREMLHKIYYFDYVVFPFNRDSLDLKFQDTSCTIPLP”, the “soluble on expression in E. coli” value is reported as “not soluble”.

The record behind these values is the DeepSol protein solubility set.
